Laboratory results published in PMC10397247.
One block for each binder: values may come before it.

Legend:
[1] = target: T1, 4H535-AA; assay: two-hybrid library CCmax; settings: mean of both orientations;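 further: natural log of median RNA to DNA barcode read ratio; higher means stronger binding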
T1 chain: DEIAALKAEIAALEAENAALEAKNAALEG

[2] = target: T2, 4H3782-AA; assay: two-hybrid library CCmax; settings: mean of both orientations;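 further: natural log of median RNA to DNA barcode read ratio; higher means stronger binding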
T2 chain: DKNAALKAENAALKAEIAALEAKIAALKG

[3] = target: T3, 4H465-AA; assay: two-hybrid library CCmax; settings: mean of both orientations;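 further: natural log of median RNA to DNA barcode read ratio; higher means stronger binding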
T3 chain: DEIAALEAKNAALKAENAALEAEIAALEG

[4] = target: GCN2_T; assay: two-hybrid library CCmax;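 further: natural log of median RNA to DNA barcode read ratio; higher means stronger binding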
[5] = target: T4, 4H_APH; assay: two-hybrid library CCmax; settings: mean of both orientations
T4 chain: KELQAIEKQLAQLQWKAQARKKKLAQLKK

[6] = target: T5, 4H3705-AA; assay: two-hybrid library CCmax
T5 chain: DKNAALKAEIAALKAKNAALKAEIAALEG

[7] = target: T6, 4H58-AA; assay: two-hybrid library CCmax; settings: mean of both orientations
T6 chain: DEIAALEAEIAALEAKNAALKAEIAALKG

[8] = target: 4H_GCN4; assay: two-hybrid library CCmax; settings: mean of both orientations
Chain of 4H_GCN4 (chain, as listed by the source): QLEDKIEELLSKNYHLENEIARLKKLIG

[9] = target: T7, 4H_BCR; assay: two-hybrid library CCmax; settings: mean of both orientations
T7 chain: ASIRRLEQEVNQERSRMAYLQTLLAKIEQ

[10] = target: T8, 4H895-AA; assay: two-hybrid library CCmax; settings: mean of both orientations
T8 chain: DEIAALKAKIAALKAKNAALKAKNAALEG

[11] = target: T9, 4H486-AA; assay: two-hybrid library CCmax; settings: mean of both orientations
T9 chain: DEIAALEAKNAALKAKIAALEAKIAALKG

[12] = target: T10, O9-bP; assay: two-hybrid library CCNG1
T10 chain: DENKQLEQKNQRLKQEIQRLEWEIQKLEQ

[13] = target: T11, O7-bP; assay: two-hybrid library CCNG1
T11 chain: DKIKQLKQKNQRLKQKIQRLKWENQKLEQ

[14] = target: T12, O6-bP; assay: two-hybrid library CCNG1
T12 chain: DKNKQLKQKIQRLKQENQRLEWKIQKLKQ

[15] = target: T13, O8-bP; assay: two-hybrid library CCNG1
T13 chain: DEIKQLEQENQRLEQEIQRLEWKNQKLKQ

[16] = target: T14, O5-bP; assay: two-hybrid library CCNG1
T14 chain: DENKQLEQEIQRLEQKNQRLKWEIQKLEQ

[17] = target: T15, O8; assay: two-hybrid library CC0; settings: mean of both orientations
T15 chain: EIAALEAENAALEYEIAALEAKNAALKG

[18] = target: T16, O7; assay: two-hybrid library CC0; settings: mean of both orientations
T16 chain: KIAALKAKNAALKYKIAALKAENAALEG

[19] = target: T17, O9; assay: two-hybrid library CC0; settings: mean of both orientations
T17 chain: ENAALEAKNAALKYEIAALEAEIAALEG

[20] = target: T18, 4H56-bH; assay: two-hybrid library CCNG1
T18 chain: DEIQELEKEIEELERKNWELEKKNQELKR

[21] = target: T19, 4H730-bH; assay: two-hybrid library CCNG1
T19 chain: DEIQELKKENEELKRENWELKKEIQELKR

[22] = target: T20, 4H349-bH; assay: two-hybrid library CCNG1
T20 chain: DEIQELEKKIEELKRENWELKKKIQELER

[23] = target: T21, 4H949-bH; assay: two-hybrid library CCNG1
T21 chain: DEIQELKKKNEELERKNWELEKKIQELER

[24] = target: T22, 4H932-bH; assay: two-hybrid library CCNG1
T22 chain: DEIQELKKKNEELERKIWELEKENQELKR

[25] = target: T23, 4H3364-bH; assay: two-hybrid library CCNG1
T23 chain: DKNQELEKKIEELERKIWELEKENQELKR

[26] = target: T24, 4H3297-bH; assay: two-hybrid library CCNG1
T24 chain: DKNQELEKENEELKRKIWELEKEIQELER

[27] = target: T25, 4H370-bH; assay: two-hybrid library CCNG1
T25 chain: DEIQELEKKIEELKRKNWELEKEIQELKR

[28] = target: T26, 4H796-bH; assay: two-hybrid library CCNG1
T26 chain: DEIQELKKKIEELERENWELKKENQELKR

[29] = target: T27, 4H3381-bH; assay: two-hybrid library CCNG1
T27 chain: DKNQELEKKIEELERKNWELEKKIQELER

[30] = target: T28, 4H780-bA; assay: two-hybrid library CCNG1
T28 chain: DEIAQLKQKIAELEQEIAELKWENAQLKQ

[31] = target: T29, 4H4073-bA; assay: two-hybrid library CCNG1
T29 chain: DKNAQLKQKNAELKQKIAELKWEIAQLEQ

[32] = target: T30, 4H918-bA; assay: two-hybrid library CCNG1
T30 chain: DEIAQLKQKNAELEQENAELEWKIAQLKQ

[33] = target: T31, 4H797-bA; assay: two-hybrid library CCNG1
T31 chain: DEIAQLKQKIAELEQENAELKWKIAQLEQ

[34] = target: T32, 4H968-bA; assay: two-hybrid library CCNG1
T32 chain: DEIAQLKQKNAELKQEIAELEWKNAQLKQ

[35] = target: T33, 4H3926-bA; assay: two-hybrid library CCNG1
T33 chain: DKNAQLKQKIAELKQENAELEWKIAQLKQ

[36] = target: T34, 4H683-bA; assay: two-hybrid library CCNG1
T34 chain: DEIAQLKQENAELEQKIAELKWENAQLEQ

[37] = target: T35, 4H457-bA; assay: two-hybrid library CCNG1
T35 chain: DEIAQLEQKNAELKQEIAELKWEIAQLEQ

[38] = target: T36, 4H855-bA; assay: two-hybrid library CCNG1
T36 chain: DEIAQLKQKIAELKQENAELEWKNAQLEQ

[39] = target: T37, 4H953-bA; assay: two-hybrid library CCNG1
T37 chain: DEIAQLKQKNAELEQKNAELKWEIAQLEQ

[40] = target: T38, 4H575-bA; assay: two-hybrid library CCNG1
T38 chain: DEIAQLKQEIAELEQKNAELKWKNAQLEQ

[41] = target: T39, 4H346-bA; assay: two-hybrid library CCNG1
T39 chain: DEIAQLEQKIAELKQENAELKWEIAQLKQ

[42] = target: T40, 4H754-bA; assay: two-hybrid library CCNG1
T40 chain: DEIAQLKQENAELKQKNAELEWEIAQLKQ

B1: 4H3705-AA (peptide)
chain: DKNAALKAEIAALKAKNAALKAEIAALEG
interaction score [1]: -0.26
interaction score [2]: -1.26
interaction score [3]: -1.21
interaction score [4]: -1.92
interaction score [5]: -2.68
interaction score [6]: -1.2
interaction score [7]: 0.517
interaction score [8]: -1.4
interaction score [9]: -1.43
interaction score [10]: -1.78
interaction score [11]: -1.65

B5: O7 (peptide)
chain: KIAALKAKNAALKYKIAALKAENAALEG
interaction score [17]: 1.47
interaction score [18]: -2.81
interaction score [19]: -2.77

B6: 4H3297-bH (peptide)
chain: DKNQELEKENEELKRKIWELEKEIQELER
interaction score [20]: -1.32
interaction score [21]: -0.0968
interaction score [22]: -0.0353
interaction score [23]: -1.66
interaction score [24]: -0.844
interaction score [25]: -0.362
interaction score [26]: 0.885
interaction score [27]: 0.804
interaction score [28]: -0.673
interaction score [29]: -0.113

Now from value to binder:

interaction score [12]: -0.21
interaction score [13]: -0.618
interaction score [14]: -0.702
interaction score [15]: -2.38
B2: O6-bP (peptide)
chain: DKNKQLKQKIQRLKQENQRLEWKIQKLKQ

interaction score [12]: -1.33
interaction score [13]: -1.28
interaction score [14]: 2.35
interaction score [16]: -1.57
interaction score [15]: -0.837
B3: O5-bP (peptide)
chain: DENKQLEQEIQRLEQKNQRLKWEIQKLEQ

interaction score [12]: -1.09
interaction score [13]: -1.43
interaction score [15]: 1.3
B4: O7-bP (peptide)
chain: DKIKQLKQKNQRLKQKIQRLKWENQKLEQ

interaction score [30]: -0.692
interaction score [31]: -0.388
interaction score [32]: -0.428
interaction score [33]: -0.562
interaction score [34]: -0.648
interaction score [35]: 1.57
interaction score [36]: 0.357
interaction score [37]: -0.833
interaction score [38]: 0.0345
interaction score [39]: -1.6
interaction score [40]: -0.114
interaction score [41]: 1.48
interaction score [42]: -0.388
B7: 4H346-bA (peptide)
chain: DEIAQLEQKIAELKQENAELKWEIAQLKQ
